Measured values taken from the RNAGym collection of RNA variant scans (doi:10.1021/acssynbio.7b00057).

B1: Pistol ribozyme (parent)
chain: GGGUCGUUGUUCCAUAAUCGCGUGGAUAUGGCACGCAAGUUUCUACCGGGCACCGUAAAUGUCCGACUGGAGCCGUUCGGGCGGCUAUAAACAGACCUCAGGCCCGAAGCGUGGCGGCACCUGCCGCCGGUGGUAAAAAAGAUCGGAAGAGCACACGUCU

Variants of: B1
Test: aptazyme ON/OFF ratio, guanine; higher = stronger switching; co-transcriptional cleavage with and without guanine

| Variant | aptazyme ON/OFF ratio |
| --- | --- |
| U8G G9U U10G C13A | 1.04 |
| U8G G9U U10G C13U | 1.04 |
| U8G G9U U10G C13G | 1.03 |
| U8G G9U U10C U11G C13U | 1.03 |
| U8G G9U U10C U11G C13A | 1.04 |
| U8G G9U U10C U11G C13G | 1.03 |
| U8G G9U U10G U11A C12A | 1.08 |
| U8G G9U U10G U11A C12U | 1.03 |
| U8G G9U U10G U11A C12G | 1.06 |
| U8G G9U U10A U11A C12G | 1.14 |
| U8G G9U U10A U11A C12U | 1.19 |
| U8G G9U U10A U11A C12A | 1.34 |
| U8G G9C U11C C13G | 1.04 |
| U8G G9C U11C C13U | 1.03 |
| U8G G9C U11C C13A | 1.06 |
| U8G G9U U10C U11G C12A C13U | 1.12 |
| U8G G9U U10C U11G C12A C13A | 1.14 |
| U8G G9U U10C U11G C12A C13G | 1.11 |
| U8G G9C U11G C12A C13U | 1.08 |
| U8G G9C U11G C12A C13A | 1.08 |
| U8G G9C U11G C12A C13G | 1.05 |
| U8G G9U C12U | 1.77 |
| U8G G9U C12G | 1.64 |
| U8G G9U C12A | 1.57 |

| Variant | aptazyme ON/OFF ratio |
| --- | --- |
| U8G G9C U11A C12G C13U | 1.07 |
| U8G G9C U11A C12G C13G | 1.1 |
| U8G G9C U11A C12G C13A | 1.08 |
| U8G G9U U10G U11G C13U | 1.02 |
| U8G G9U U10G U11G C13A | 1.04 |
| U8G G9U U10G U11G C13G | 1.03 |
| U8G G9U U10A U11G C12G C13U | 1.37 |
| U8G G9U U10A U11G C12G C13G | 1.15 |
| U8G G9U U10A U11G C12G C13A | 1.05 |
| U8G G9U U11A C12A C13G | 1.22 |
| U8G G9U U11A C12A C13A | 1.18 |
| U8G G9U U11A C12A C13U | 1.1 |
| U8G G9U U10G U11A C12G C13A | 1.05 |
| U8G G9U U10G U11A C12G C13G | 1.17 |
| U8G G9U U10G U11A C12G C13U | 1.04 |
| U8G G9U U10C U11A C12G C13U | 1.16 |
| U8G G9U U10C U11A C12G C13A | 1.08 |
| U8G G9U U10C U11A C12G C13G | 1.14 |
| U8G G9U U10C U11A C12A C13U | 1.09 |
| U8G G9U U10C U11A C12A C13G | 1.08 |
| U8G G9U U10C U11A C12A C13A | 1.07 |
| U8G G9U U10A C13G | 1.06 |
| U8G G9U U10A C13U | 1.09 |
| U8G G9U U10A C13A | 1.1 |

| Variant | aptazyme ON/OFF ratio |
| --- | --- |
| U8G U10A U11A C12A C13A | 1.19 |
| U8G U10A C12U | 1.17 |
| U8G U10A C12G | 1.23 |
| U8G U10A C12A | 1.48 |
| U8G G9C U10G U11G C12U C13A | 1.16 |
| U8G G9C U10G U11G C12U C13U | 1.28 |
| U8G G9C U10G U11G C12U C13G | 1.14 |
| U8G G9U U11G C13G | 1.04 |
| U8G G9U U11G C13A | 1.06 |
| U8G G9U U11G C13U | 1.05 |
| U8G G9U U10G C12U C13U | 1.06 |
| U8G G9U U10G C12U C13G | 1.02 |
| U8G G9U U10G C12U C13A | 1.03 |
| U8G G9U U10C C13G | 1.03 |
| U8G G9U U10C C13U | 1.03 |
| U8G G9U U10C C13A | 1.04 |
| U8G G9U U11A C13G | 1.06 |
| U8G G9U U11A C13A | 1.33 |
| U8G G9U U11A C13U | 1.25 |
| U8G G9U U10G U11C C12G | 1.03 |
| U8G G9U U10G U11C C12A | 1.02 |
| U8G G9U U10G U11C C12U | 1.04 |
| U8G G9U U10C C12A C13A | 1.2 |
| U8G G9U U10C C12A C13U | 1.15 |

| Variant | aptazyme ON/OFF ratio |
| --- | --- |
| U8G G9U U10C C12A C13G | 1.15 |
| U8G G9U U10A U11C C13U | 1.01 |
| U8G G9U U10A U11C C13G | 1.03 |
| U8G G9U U10A U11C C13A | 1.02 |
| U8G G9U U10A U11A C12U C13U | 1.15 |
| U8G G9U U10A U11A C12U C13A | 1.14 |
| U8G G9U U10A U11A C12U C13G | 1.11 |
| U8G G9C U11C C12U | 1.04 |
| U8G G9C U11C C12G | 1.04 |
| U8G G9C U11C C12A | 1.05 |
| U8G G9C U11A C12G | 1.07 |
| U8G G9C U11A C12A | 1.11 |
| U8G G9C U11A C12U | 1.05 |
| U8G U10A | 1.15 |
| U8G G9U U10C U11C C12U C13U | 1.06 |
| U8G G9U U10C U11C C12U C13G | 1.02 |
| U8G G9U U10C U11C C12U C13A | 1.02 |
| U8G G9U U11A C12U | 1.36 |
| U8G G9U U11A C12G | 1.25 |
| U8G G9U U11A C12A | 1.42 |
| U8G G9U U10C U11G C12G C13G | 1.14 |
| U8G G9U U10C U11G C12G C13A | 1.15 |
| U8G G9U U10C U11G C12G C13U | 1.08 |
| U8G G9U U10G U11C C12U C13A | 1.03 |

| Variant | aptazyme ON/OFF ratio |
| --- | --- |
| U8G G9U U10G U11C C12U C13G | 1.03 |
| U8G G9U U10G U11C C12U C13U | 1.03 |
| U8G G9U U10C C12G | 1.41 |
| U8G G9U U10C C12A | 1.19 |
| U8G G9U U10C C12U | 1.09 |
| U8G G9U U11A C12U C13G | 1.22 |
| U8G G9U U11A C12U C13U | 1.35 |
| U8G G9U U11A C12U C13A | 1.19 |
| U8G G9C U11A C12U C13A | 1.03 |
| U8G G9C U11A C12U C13G | 1.06 |
| U8G G9C U11A C12U C13U | 1.1 |
| U8G G9U U10A U11C | 1.01 |
| U8G G9U U10A U11A | 1.59 |
| U8G G9U U10A U11G | 1.16 |
| U8G U10A C12A C13G | 1.05 |
| U8G U10A C12A C13U | 1.27 |
| U8G U10A C12A C13A | 1.26 |
| U8G G9C U11C C12G C13U | 1.04 |
| U8G G9C U11C C12G C13G | 1.05 |
| U8G G9C U11C C12G C13A | 1.03 |
| U8G G9U U11C C12G C13U | 1.13 |
| U8G G9U U11C C12G C13A | 1.04 |
| U8G G9U U11C C12G C13G | 1.06 |
| U8G G9U U10A C12A | 1.43 |

| Variant | aptazyme ON/OFF ratio |
| --- | --- |
| U8G G9U U10A C12U | 1.11 |
| U8G G9U U10A C12G | 1.15 |
| U8G G9U U11A C12G C13U | 1.18 |
| U8G G9U U11A C12G C13A | 1.13 |
| U8G G9U U11A C12G C13G | 1.23 |
| U8G G9U U10A U11G C12A C13G | 1.06 |
| U8G G9U U10A U11G C12A C13A | 1.05 |
| U8G G9U U10A U11G C12A C13U | 1.12 |
| U8G G9U U10A U11C C12G C13U | 1.11 |
| U8G G9U U10A U11C C12G C13G | 1.11 |
| U8G G9U U10A U11C C12G C13A | 1.08 |
| U8G G9U U11C C13U | 1.08 |
| U8G G9U U11C C13A | 1.1 |
| U8G G9U U11C C13G | 1.03 |
| U8G G9U U10C U11C C12U | 1.03 |
| U8G G9U U10C U11C C12G | 1.02 |
| U8G G9U U10C U11C C12A | 1.04 |
| U8G G9U U10A U11G C12U C13U | 1.13 |
| U8G G9U U10A U11G C12U C13G | 1.1 |
| U8G G9U U10A U11G C12U C13A | 1.05 |
| U8G G9C U11A | 1.13 |
| U8G G9C U11G | 1.14 |
| U8G G9C U11C | 1.03 |
| U8G G9U U11C C12U C13G | 1.08 |

| Variant | aptazyme ON/OFF ratio |
| --- | --- |
| U8G G9U U11C C12U C13U | 1.03 |
| U8G G9U U11C C12U C13A | 1.06 |
| U8G G9U U10G U11G C12U C13G | 1.09 |
| U8G G9U U10G U11G C12U C13U | 1.18 |
| U8G G9U U10G U11G C12U C13A | 1.09 |
| U8G G9U U11G C12U C13G | 1.1 |
| U8G G9U U11G C12U C13U | 1.16 |
| U8G G9U U11G C12U C13A | 1.13 |
| U8G G9U U10A U11A C13A | 1.19 |
| U8G G9U U10A U11A C13G | 1.09 |
| U8G G9U U10A U11A C13U | 1.25 |
| U8G G9U U11G C12G C13U | 1.22 |
| U8G G9U U11G C12G C13A | 1.21 |
| U8G G9U U11G C12G C13G | 1.36 |
| U8G G9U U10C C12G C13U | 1.36 |
| U8G G9U U10C C12G C13A | 1.26 |
| U8G G9U U10C C12G C13G | 1.25 |
| U8G G9U U10G U11G C12A | 1.06 |
| U8G G9U U10G U11G C12U | 1.2 |
| U8G G9U U10G U11G C12G | 1.13 |
| U8G G9U U10C U11C C12A C13U | 1.02 |
| U8G G9U U10C U11C C12A C13A | 1.05 |
| U8G G9U U10C U11C C12A C13G | 1.1 |
